Assay results published in patent publication US20240293579A1, “Composition Comprising Trim31 and Rhbdf2 for Treatment of NAFLD/NASH” (CHONGQING MEIPULAN TECHNOLOGY CO., LTD, priority 2021, published 2024).

Biological target: T1, human RHBDF2, full-length, HA-tagged (RHBDF2-HA), Q6PJF5
T1 chain: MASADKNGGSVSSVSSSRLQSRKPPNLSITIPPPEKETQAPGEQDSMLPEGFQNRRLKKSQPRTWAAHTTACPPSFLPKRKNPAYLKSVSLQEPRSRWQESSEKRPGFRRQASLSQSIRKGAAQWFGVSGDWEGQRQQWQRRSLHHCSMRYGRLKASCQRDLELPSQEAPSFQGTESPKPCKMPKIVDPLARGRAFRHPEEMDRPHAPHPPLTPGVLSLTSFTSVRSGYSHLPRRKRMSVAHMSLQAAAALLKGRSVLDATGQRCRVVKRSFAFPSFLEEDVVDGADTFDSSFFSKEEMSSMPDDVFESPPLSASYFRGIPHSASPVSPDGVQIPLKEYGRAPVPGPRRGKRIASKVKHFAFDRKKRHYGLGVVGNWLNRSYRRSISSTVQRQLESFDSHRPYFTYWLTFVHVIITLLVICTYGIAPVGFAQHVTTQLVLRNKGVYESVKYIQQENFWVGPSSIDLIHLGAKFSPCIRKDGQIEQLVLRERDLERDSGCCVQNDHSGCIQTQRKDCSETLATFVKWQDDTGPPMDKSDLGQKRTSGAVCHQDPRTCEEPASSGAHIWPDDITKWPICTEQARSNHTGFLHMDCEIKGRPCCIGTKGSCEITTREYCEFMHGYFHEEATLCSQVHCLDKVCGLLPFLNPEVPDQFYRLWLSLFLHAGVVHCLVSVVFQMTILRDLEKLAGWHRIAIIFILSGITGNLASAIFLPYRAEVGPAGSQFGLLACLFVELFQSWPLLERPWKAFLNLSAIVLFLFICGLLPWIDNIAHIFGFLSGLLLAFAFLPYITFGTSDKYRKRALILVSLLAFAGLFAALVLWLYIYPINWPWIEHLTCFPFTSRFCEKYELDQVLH

B1: human TRIM31, full-length wild type, Flag-tagged (TRIM31-Flag WT) (protein)
chain: MASGQFVNKLQEEVICPICLDILQKPVTIDCGHNFCLKCITQIGETSCGFFKCPLCKTSVRKNAIRFNSLLRNLVEKIQALQASEVQSKRKEATCPRHQEMFHYFCEDDGKFLCFVCRESKDHKSHNVSLIEEAAQNYQGQIQEQIQVLQQKEKETVQVKAQGVHRVDVFTDQVEHEKQRILTEFELLHQVLEEEKNFLLSRIYWLGHEGTEAGKHYVASTEPQLNDLKKLVDSLKTKQNMPPRQLLEDIKVVLCRSEEFQFLNPTPVPLELEKKLSEAKSRHDSITGSLKKFKDQLQADRKKDENRFFKSMNKNDMKSWGLLQKNNHKMNKTSEPGSSSAGGRTTSGPPNHHSSAPSHSLFRASSAGKVTFPVCLLASYDEISGQGASSQDTKTFDVALSEELHAALSEWLTAIRAWFCEVPSS
- polyubiquitination of Rhbdf2 with single-lysine ubiquitin constructs (K48O, K63O, K33O, K6O, K29O, K27O): Trim31-mediated increase in polyubiquitination of Rhbdf2 could be greatly observed in the presence of K48-loading vector, but not with other vectors
